This series is described as follows: label from the status in PepcDB records.
For the sequence “MIIGNCLILKDFSSEPFWGAVEIENGTIKRVLQGEVKVDLDLSGKLVMPALFNTHTHAPMTLLRGVAEDLSFEEWLFSKVLPIEDRLTEKMAYYGTILAQMEMARHGIAGFVDMYFHEEWIAKAVRDFGMRALLTRGLVDSNGDDGGRLEENLKLYNEWNGFEGRIFVGFGPHSPYLCSEEYLKRVFDTAKSLNAPVTIHLYETSKEEYDLEDILNIGLKEVKTIAAHCVHLPERYFGVLKDIPFFVSHNPASNLKLGNGIAPVQRMIEHGMKVTLGTDGAASNNSLNLFFEMRLASLLQKAQNPRNLDVNTCLKMVTYDGAQAMGFKSGKIEEGWNADLVVIDLDLPEMFPVQNIKNHLVHAFSGEVFATMVAGKWIYFDGEYPTIDSEEVKRELARIEKELYSS”, the protein production entry is given as “not failed”. The same measure for “MAPHSLKKNYRCSRSLKQFYGGGPFIVSSDGSFIACACGDVINIVDSTDSSVKSTIEGESDTLTALALSPDDKLLFSAGHSRQIRVWDLETLKCIRSWKGHEGPVMGMACHASGGLLATAGADRKVLVWDVDGGFCTHYFRGHKGVVSSILFHPDSNKNILISGSDDATVRVWDLNAKNTEKKCLAIMEKHFSAVTSIALSEDGLTLFSAGRDKVVNLWDLHDYSCKATVATYEVLEAVTTVSSGTPFASFVASLDQKKSKKKESDSQATYFITVGERGVVRIWKSEGSICLYEQKSSDITVSSDDEESKRGFTAAAMLPSDHGLLCVTADQQFFFYSVVENVEETELVLSKRLVGYNEEIADMKFLGDEEQFLAVATNLEEVRVYDVATMSCSYVLAGHKEVVLSLDTCVSSSGNVLIVTGSKDKTVRLWNATSKSCIGVGTGHNGDILAVAFAKKSFSFFVSGSGDRTLKVWSLDGISEDSEEPINLKTRSVVAAHDKDINSVAVARNDSLVCTGSEDRTASIWRLPDLVHVVTLKGHKRRIFSVEFSTVDQCVMTASGDKTVKIWAISDGSCLKTFEGHTSSVLRASFITDGTQFVSCGADGLLKLWNVNTSECIATYDQHEDKVWALAVGKKTEMIATGGGDAVINLWHDSTASDKEDDFRKEEEAILRGQELENAVLDAEYTKAIRLAFELCRPHKVFELFSGLCRKRDSDEQIVKALQGLEKEEFRLLFEYVREWNTKPKLCHIAQFVLYKTFNILPPTEIVQVKGIGELLEGLIPYSQRHFSRIDRFVRSSFLLDYTLGEMSVIDPETVETEYPKDEKKKEKDVIAAMEQDTDELKQETPSRKRKSQKSKGKSNKKRLIAEAQGSVIAV”: “failed”. Turning to “HVSDLDWLMSGLVQRVPHTTSAVLLSCDGLVKSVHGLDPDSADHMAALASGLYSLGRSAGIRFGDGGDVRQVVVELDSTLLFVSTAGSGTCLAVLAGREADAAVLGYEMAMLVKSVRPYLMTAPRQ”, the protein production result is on record as “not failed”. The entry for “MSILDILILLAPIFFVIVLGWFAGHFGSYDAKSAKGVSTLVTKYALPAHFIAGILTTSRSEFLSQVPLMISLIIGIVGFYIIILLVCRFIFKYDLTNSSVFSLNSAQPTFAFMGIPVLGSLFGANEVAIPIAVTGIVVNAILDPLAIIIATVGESSKKNEESGDSFWKMTGKSILHGLCEPLAAAPLISMILVLVFNFTLPELGVKMLDQLGSTTSGVALFAVGVTVGIRKIKLSMPAIGIALLKVAVQPALMFLIALAIGLPADQTTKAILLVAFPGSAVAAMIATRFEKQEEETATAFVVSAILSLISLPIIIALTA” is “failed”; for “MYQTIEGFLQSWTYETESTQKMLDVLTDESLSQEIAPGHWTLGRVAWHIVTAIPVILSGTGLKFEGETKDYPVPTSAKTIADGYRKVNTAFVEALQSEWTDKDLTTINDFFGRPMPNSIFLMTLINHQNHHRGQMTVLMRQAGLTVPGVYGPAKEEWATAGMEAPKM” it is “not failed”. The entry for “MGKTRAGRFALRGQRTALLHLETMTQAVDSADSVDPRALEALNRYFGYDSFRPGQSGIVSAILTGHDVLGVMPTGAGKSICYQIPAAILPGVAIVISPLISLMRDQVDALNDVGLPAAFINTTQTPDEQDLVFAQALSGQIKLLYVAPERLETERFRNFAVRVPISLVAVDEAHCVSQWGQDFRSSYLGIGEFIAGLPTRPTVAAFTATATERVRRDIVSILGLHTPSITVTGFDRPNLYFDVISMPRKDKASWVASYIASHPDESGIVYCATRKETEALAESLNSAVAELRAAGGADVSDIGTIAVAYHGGMSADAREKAQRDFVTDRVPVVVATNAFGMGIDKSNVRFVIHHNMPESIEAYYQEAGRAGRDGEPSRCTLLWNESDIVTRRRLLDSDYENERLTPEEQEAVRASKRRLLDAMVGYCRTTDCLHAYMTRYFGETAGAAAKTDGKCVGGCANCEHTFETIDVTDIARAISRCVHDVNQHVGSGKIVKVLRGSKAQDLSYLNPESLPSFGMLDEVPEARIRDVLSQMATDGFLTIAEGRLPIVGFGPRAAETVAPEFHYDIKKIKRADARARRTPDVSTPAVGSYVPDDGDEALFQKLRALRLDIARELGKPPYIVFSDKTLRDMVRVKPITDDQFLAVNGVGESKLKQYGERFLAAIREDSGDEA” is “failed”. Consider “MERNSWAEQWDSNQQSSGKTTHGGEGGGASSKYKEKVGAGLGKTKAAASSGLKKVKIGTSLGLNWVKDKYNKTTTKN”, for which the protein production result is “failed”. The entry for “MTGTSNIPTHGKEHKDAPALLPLPAPNPHHTHAAHPGNPSHDRPPSRGKLFIKTHGCQMNEYDSAKMADVLTTTEALELTDNPEEADIILINTCSIREKAQEKVFSQLGRWRALKTSGRDVIIGVGGCVASQEGEAIVKRAPYVDLVFGPQTLHRLPDMIRARREQNRPQVDIRFPEIEKFDHLPTPRAEGPSAFVSIMEGCSKYCSFCVVPYTRGEEVSRPFEDVLTEIAHLATQGVREINLLGQNVNAYRGAMDPGPSNNTNPAPPPYADLGLLIRAIAQFESIGRIRFTTSHPLEFSDSLVEAYRDVPQLANHLHLPVQSGSDRILSAMKRGYTALEFKSKIRKLRAVRPDISISSDFIIGFPGESDTDFQKTMQLIEDIGFDQSFSFIYSRRPGTPASNLEDHTPDEIKRTRLEHLQKHINTYAADISKRMIGTVQTVLVEGPSKKNPNELTGKTENMRPVNFPGHPRLIGQFIDVHITEALSNSLRGRVHTNLEHHHHHH” is “not failed”; for “GPHQRLEKLDSLLSDYDILSLSNIQQHSVRKRDLQTSTHVETLLTFSALKRHFKLYLTSSTERFSQNFKVVVVDGKNESEYTVKWQDFFTGHVVGEPDSRVLAHIRDDDVIIRINTDGAEYNIEPLWRFVNDTKDKRMLVYKSEDIKNVSRLQSPKVCGYLKVDNEELLPKGLVDREPPEGKT” it is “not failed”.

Regarding “MSSDESSDGLEELQSLKALYGQQEQEKPAKIKRERYIPKASQAKELNYVEVPMEKVLFGDRQRLLTNLAKSVGQKLPNDDEDEQEENPGQAKPGDKRKAAWSDSDDEDLQVGDVKKATKHTGPLNHLRKDKSYKEYLTARFQRTLNQPKWAEKKVKNEDDEDVSSDEELLRTVGFIDRKARNSDLPQKTLNFKRVKDLNRATYAEGNATSIQFHPTSTAALVAGMNGLATIYAVDGQKNERLHNMRFKKFPLACSRIAPCGTRAFFGSVKPFYYSYDLLEAKESKLKLPGAMEFMHRFEVSPCGKFIVTAGKFGAIHLLTAKTNELLHSFKQEGKVKGFTWSSDSKRILVCGSTSNVSVLNLRQNLIEHIFMDDGCIHGESIQLSPNQRLLATGSQEGVVNIYDYESIFASKAPQPEKRFMNLRTAITDLQFNHSSELLAMCSSEAPNAFKLAHFPSATVYSNFPAQNEKVGFVTSMAFSPHSSFLAFATKGKQVPLFRLKYFKGY”, the protein production result was “failed”. The same measure for “MSDVMTLKKSDIYNSDGSVKHTAFIHDKKTGKANTLYLKPVQQDLLQYHDWLVQENINSEWLFPSASHHNRHITEKQFYKVMARVGDLLSINYHYLGTHTMRKTGAYRVYTQSNYNIGLVMHLLNHSSEVMTLTYLGLDHASRETMLDQIDFG”: “failed”; for “MATEKLPPLERYIRMLELLTAFPDGLALSELSAMIELPKASAHRLIKTLQELELAATSSPGSATYVTGPRLRKLAFMSADAQWVVAILRPFLRELTQEMGETAFVARLEGASVRTIAFEAPETPWRGFILPGYEMHPNAAASAKAILAFQDAATLKRALREPFERLTPQTNLSKERLLEEYAAIRQSGVATCIGEIDEGLAAVAVPIEVGGAAGLYSLGLTGPMNRVMALGVERAAERMMAYAARMASGLSAGLSAESARAAGLS”: “failed”.
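Note: failed if final PepcDB status was selected cloned or expressed and not failed if soluble or beyond.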
